The source of these data is PMC3585324, “InterAKTions with FKBPs - Mutational and Pharmacological Exploration” (PLoS ONE, 2013).

The target in experiment [1] is T1, purified inactive Akt1 (untagged) (UniProt P31749 1-480).
T1 construct: source: bought: Merck Millipore
Nature of the experiment: pull-down; FLAG pull-down: FLAG column saturated with FKBP51_FLAG, 20 µM inactive Akt, NETN buffer, 4 °C overnight, eluted with FLAG peptide; Western blot. Conditions: both partners purified. A general note: A western blot detects proteins with antibodies after separation by electrophoresis.

The target in experiment [2] is T2, GST_Akt1^S473D (UniProt P31749 1-480, S473D).
T2 construct: Akt1 with the phosphomimetic S473D, called constitutively active; also called purified GST-tagged Akt1S473D; GST-tagged active Akt
T2 sequence (P31749 whole entry S473D): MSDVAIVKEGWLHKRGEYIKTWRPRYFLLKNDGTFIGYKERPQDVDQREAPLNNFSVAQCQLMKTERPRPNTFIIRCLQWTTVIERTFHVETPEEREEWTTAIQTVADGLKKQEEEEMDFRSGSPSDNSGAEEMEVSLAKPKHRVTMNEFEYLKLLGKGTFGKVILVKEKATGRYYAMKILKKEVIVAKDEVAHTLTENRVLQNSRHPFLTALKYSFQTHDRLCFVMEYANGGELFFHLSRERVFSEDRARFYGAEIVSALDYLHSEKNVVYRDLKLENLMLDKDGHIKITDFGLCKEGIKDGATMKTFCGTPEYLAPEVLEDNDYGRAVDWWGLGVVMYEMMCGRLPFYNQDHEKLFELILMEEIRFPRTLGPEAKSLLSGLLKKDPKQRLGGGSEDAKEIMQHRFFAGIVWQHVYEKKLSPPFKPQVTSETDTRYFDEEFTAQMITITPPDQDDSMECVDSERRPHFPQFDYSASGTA
Kind of experiment: pull-down; GST pull-down: 15 µM FKBPs or Cyp40 with 22 µM GST_Akt1 S473D or GST_Akt1 S473D_ΔPH on glutathione resin, 3 h, 4 °C, NETN buffer (20 mM Tris-HCl pH 8.0, 100 mM NaCl, 1 mM EDTA, 0.5% igepal); AMP-PNP (5 mM), rapamycin (1 µM) or DMSO where indicated; Western blot. The note with it: both partners purified.

T1 sequence (P31749 whole entry): as the sequence (P31749 whole entry S473D) above, with D473S counted along it

B1: purified FLAG-tagged FKBP51 (natural protein, UniProt Q13451 1-457, looked up)
chain: MTTDEGAKNNEESPTATVAEQGEDITSKKDRGVLKIVKRVGNGEETPMIGDKVYVHYKGKLSNGKKFDSSHDRNEPFVFSLGKGQVIKAWDIGVATMKKGEICHLLCKPEYAYGSAGSLPKIPSNATLFFEIELLDFKGEDLFEDGGIIRRTKRKGEGYSNPNEGATVEIHLEGRCGGRMFDCRDVAFTVGEGEDHDIPIGIDKALEKMQREEQCILYLGPRYGFGEAGKPKFGIEPNAELIYEVTLKSFEKAKESWEMDTKEKLEQAAIVKEKGTVYFKGGKYMQAVIQYGKIVSWLEMEYGLSEKESKASESFLLAAFLNLAMCYLKLREYTKAVECCDKALGLDSANEKGLYRRGEAQLLMNEFESAKGDFEKVLEVNPQNKAARLQISMCQKKAKEHNERDRRIYANMFKKFAEQDAKEEANKAMGKKTSEGVTNEKGTDSQAMEEEKPEGHV
notes: FKBP51, His-tagged full length; also called FKBP51_FLAG; purified FKBP51
Regarding B1, the binding result in experiment [1] and in experiment [2] was “binds” in each case.

B2: purified FKBP52 (natural protein, UniProt Q02790 1-459, looked up)
chain: MTAEEMKATESGAQSAPLPMEGVDISPKQDEGVLKVIKREGTGTEMPMIGDRVFVHYTGWLLDGTKFDSSLDRKDKFSFDLGKGEVIKAWDIAIATMKVGEVCHITCKPEYAYGSAGSPPKIPPNATLVFEVELFEFKGEDLTEEEDGGIIRRIQTRGEGYAKPNEGAIVEVALEGYYKDKLFDQRELRFEIGEGENLDLPYGLERAIQRMEKGEHSIVYLKPSYAFGSVGKEKFQIPPNAELKYELHLKSFEKAKESWEMNSEEKLEQSTIVKERGTVYFKEGKYKQALLQYKKIVSWLEYESSFSNEEAQKAQALRLASHLNLAMCHLKLQAFSAAIESCNKALELDSNNEKGLFRRGEAHLAVNDFELARADFQKVLQLYPNNKAAKTQLAVCQQRIRRQLAREKKLYANMFERLAEEENKAKAEASSGDHPTDTEMKEEQKSNTAGSQSQVETEA
notes: FKBP52, His-tagged full length
B2: in experiment [2], the binding result is given as “binds”.

B3: purified FKBP51 ΔFK1_FLAG (domain or fragment, UniProt Q13451 143-457, looked up)
chain: FEDGGIIRRTKRKGEGYSNPNEGATVEIHLEGRCGGRMFDCRDVAFTVGEGEDHDIPIGIDKALEKMQREEQCILYLGPRYGFGEAGKPKFGIEPNAELIYEVTLKSFEKAKESWEMDTKEKLEQAAIVKEKGTVYFKGGKYMQAVIQYGKIVSWLEMEYGLSEKESKASESFLLAAFLNLAMCYLKLREYTKAVECCDKALGLDSANEKGLYRRGEAQLLMNEFESAKGDFEKVLEVNPQNKAARLQISMCQKKAKEHNERDRRIYANMFKKFAEQDAKEEANKAMGKKTSEGVTNEKGTDSQAMEEEKPEGHV
notes: FKBP51 without the FK1 domain; It was the only construct not checked by active site titration; also called FKBP51 ΔFK1 construct; pProExHta_ΔFK1; source: purified
B3: in experiment [2], the binding result is on record as “binds”.

B4: purified isolated FK506-binding domain of FKBP51 (FKBP51FK1) (domain or fragment, UniProt Q13451 1-140, looked up)
chain: MTTDEGAKNNEESPTATVAEQGEDITSKKDRGVLKIVKRVGNGEETPMIGDKVYVHYKGKLSNGKKFDSSHDRNEPFVFSLGKGQVIKAWDIGVATMKKGEICHLLCKPEYAYGSAGSLPKIPSNATLFFEIELLDFKGE
notes: detection was with an antibody against the FK1 domain; also called FLAG-tagged FKBP51FK1; source: purified
Regarding B4, the binding result in experiment [2] was “binds”.
